Tests used:
[1] = system: peptide-HLA-A*02:01 yeast-display library; assay: Selection of the peptide-HLA-A*02:01 yeast-display library by multimerized TCR with deep sequencing; type: binding, human; conditions: for cross-reactivity (breadth of tolerated amino acids per peptide position): round 3, accounting for peptide enrichment
[2] = target: T1, MMDFFNAQM-HLA-A*02:01 (Homo sapiens, UniProt P04439+P26368, D140Y/D185E/D98H/E176V/E277Q/G131W/G231S/I119V/I121R/I166T/I218V/N151K/N90K/P208A/P217A/Q86G/Q94H/R138H/R169H); assay: Surface plasmon resonance of TCR binding to immobilized […]-HLA-A*02:01; conditions: BIAcore T100, 25° C., equilibrium data, 1:1 binding model
T1 construct: HLA-A*02:01 (1-275); BirA biotinylation site (implied by BirA biotinylation); made in house
Experimental: Inclusion bodies containing the separate proteins were dissolved in 8 M urea, 40 mM Tris-HCl pH 8.0, 10 mM EDTA, and 10 mM DTT. […] After 72 hours at 4° C., the protein was dialyzed in 10 L of 10 mM Tris-HCl and purified via weak ion exchange using a DEAE cellulose column. The protein elution was purified using size exclusion chromatography on a Superdex 200 column and ion-exchange chromatography on a 5/50 Mono Q column (GE Healthcare). Protein was biotinylated overnight with birA ligase, 100 μM biotin, 40 mM Bicine pH 8.3, 10 mM ATP, and 10 mM Magnesium Acetate at 4° C. after buffer-exchange to 1×HBS pH 7.2 in a 30 kDa filter (Millipore) before being run on a size exclusion Superdex 200 column.
A different flow cell was immobilized with non-relevant peptide-HLA-A2 to serve as blank control. […] Injections of TCR were stopped after 60 s to allow sufficient time for SPR signals to reach plateau. The dissociation constant (KD) was obtained by fitting equilibrium data with a 1:1 binding model using BIAcore evaluation software.

B1: TCR 2A: TIL TCR of Patient A, TRAV19/TRBV10-1; alpha chain SEQ ID NO: 258, beta chain SEQ ID NO: 259 (protein)
alpha: QKVTQAQTEISVVEKEDVTLDCVYETRDTTYYLFWYKQPPSGELVFLIRRNSFDEQNEISGRYSWNFQKSTSSFNFTITASQVVDSAVYFCALSEARGGATNKLIFGTGTLLAVQPNIQNPDPAVYQLRDSKSSDKSVCLFTDFDSQTNVSQSKDSDVYITDKCVLDMRSMDFKSNSAVAWSNKSDFACANAFNNSIIPEDTFFPSPESS
beta: EITQSPRHKITETGRQVTLACHQTWNHNNMFWYRQDLGHGLRLIHYSYGVQDTNKGEVSDGYSVSRSNTEDLPLTLESAASSQTSVYFCASSRDTVNTEAFFGQGTRLTVVEDLKNVFPPEVAVFEPSEAEISHTQKATLVCLATGFYPDHVELSWWVNGKEVHSGVCTDPQPLKEQPALNDSRYALSSRLRVSATFWQNPRNHFRCQVQFYGLSENDEWTQDRAKPVTQIVSAEAWGRAD
Which results are given for B1?
enrichment of peptides / HLA-linked epitope tag from the library ([1]; HLA-A*02:01 library): enriched peptides from the library; cross-reactivity (breadth of tolerated amino acids per peptide position) [1]: more cross-reactive

B2: TCR 3B: TIL TCR of Patient B, TRAV19/TRBV10-1; alpha chain SEQ ID NO: 258, beta chain SEQ ID NO: 260 (protein)
alpha: QKVTQAQTEISVVEKEDVTLDCVYETRDTTYYLFWYKQPPSGELVFLIRRNSFDEQNEISGRYSWNFQKSTSSFNFTITASQVVDSAVYFCALSEARGGATNKLIFGTGTLLAVQPNIQNPDPAVYQLRDSKSSDKSVCLFTDFDSQTNVSQSKDSDVYITDKCVLDMRSMDFKSNSAVAWSNKSDFACANAFNNSIIPEDTFFPSPESS
beta: EITQSPRHKITETGRQVTLACHQTWNHNNMFWYRQDLGHGLRLIHYSYGVQDTNKGEVSDGYSVSRSNTEDLPLTLESAASSQTSVYFCASSRDFVSNEQYFGPGTRLTVTEDLKNVFPPEVAVFEPSEAEISHTQKATLVCLATGFYPDHVELSWWVNGKEVHSGVCTDPQPLKEQPALNDSRYALSSRLRVSATFWQNPRNHFRCQVQFYGLSENDEWTQDRAKPVTQIVSAEAWGRAD
Which results are given for B2?
affinity (dissociation constant, KD) [2]: could not be determined; TCR tetramer staining of selected library yeast ([1]; 400 nM TCR tetramer, over rounds of selection): tetramer stained yeast gradually increased across the rounds of selection; enrichment of peptides / HLA-linked epitope tag from the library ([1]; HLA-A*02:01 library): enriched peptides from the library; unique peptides selected at round 3 ([1]; HLA-A*02:01 library, all four peptide lengths, deep sequencing): 66; cross-reactivity (breadth of tolerated amino acids per peptide position) [1]: relatively specific

Source: patent US20250042969A1, “ANTIGEN DISCOVERY FOR T CELL RECEPTORS ISOLATED FROM PATIENT TUMORS RECOGNIZING WILD-TYPE ANTIGENS AND POTENT PEPTIDE MIMOTOPES” (The Board of Trustees of the Leland Stanford Junior …, priority 2017, published 2025)
